Results on three molecules are retold here after US20190185537A1 (AstraZeneca / MedImmune, published 2019).

Like-named read-outs stand apart in the source and are kept apart here. Numbered stars: 1 amine (or outer) side, 2 acyl side, 3 side chain; on linkers, the order of the positions; unused ones are H or OH. Side chains are listed from the residue outwards. Ends that are not written are not given here. * marks the point of attachment. γGlu = O=C(O)[C@H](CCC(=O)[*:2])N[*:1]; Palmitoyl = CCCCCCCCCCCCCCCC(=O)*

Assay [1] deals with human serum albumin (human) (UniProt P02768). Nature of the assay: calculated from the variation in cAMP generation with the HSA concentration.
Chain of human serum albumin (human) (P02768 25-609 limits assumed): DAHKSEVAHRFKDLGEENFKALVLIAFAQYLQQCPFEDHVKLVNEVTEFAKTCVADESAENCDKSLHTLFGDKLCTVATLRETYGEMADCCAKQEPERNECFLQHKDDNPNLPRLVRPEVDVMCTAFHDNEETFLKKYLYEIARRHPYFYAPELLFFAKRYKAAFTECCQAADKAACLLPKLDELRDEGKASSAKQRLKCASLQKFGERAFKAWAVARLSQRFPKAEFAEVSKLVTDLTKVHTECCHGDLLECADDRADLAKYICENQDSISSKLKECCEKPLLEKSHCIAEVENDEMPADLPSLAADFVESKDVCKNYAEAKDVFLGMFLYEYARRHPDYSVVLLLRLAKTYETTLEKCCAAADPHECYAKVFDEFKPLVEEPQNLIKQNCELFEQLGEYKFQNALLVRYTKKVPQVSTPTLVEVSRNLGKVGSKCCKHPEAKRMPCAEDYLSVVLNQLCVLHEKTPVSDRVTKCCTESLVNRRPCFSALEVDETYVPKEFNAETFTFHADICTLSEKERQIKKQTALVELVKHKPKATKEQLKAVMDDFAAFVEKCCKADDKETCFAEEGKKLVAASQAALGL
The target in assay [2] is T1, human glucagon receptor (human, UniProt P47871 26-477). Nature of the assay: cell-based or functional assay.
T1 sequence (P47871 26-477): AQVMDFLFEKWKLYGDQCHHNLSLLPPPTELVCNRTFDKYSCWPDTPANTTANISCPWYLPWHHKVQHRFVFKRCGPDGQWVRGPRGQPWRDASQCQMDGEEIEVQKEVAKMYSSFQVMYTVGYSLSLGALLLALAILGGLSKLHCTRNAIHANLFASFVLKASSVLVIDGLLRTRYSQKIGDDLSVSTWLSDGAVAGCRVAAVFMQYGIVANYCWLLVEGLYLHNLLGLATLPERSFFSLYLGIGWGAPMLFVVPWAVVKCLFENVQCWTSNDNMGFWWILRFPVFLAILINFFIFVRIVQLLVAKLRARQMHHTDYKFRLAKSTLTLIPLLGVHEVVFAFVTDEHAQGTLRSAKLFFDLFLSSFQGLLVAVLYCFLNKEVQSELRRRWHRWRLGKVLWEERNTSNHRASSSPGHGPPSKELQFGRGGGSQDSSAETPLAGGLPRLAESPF
The target in assay [3] is T2, human glucose-dependent insulinotropic peptide (gastric inhibitory polypeptide) receptor (human, UniProt P48546 22-466).
T2 sequence (looked up): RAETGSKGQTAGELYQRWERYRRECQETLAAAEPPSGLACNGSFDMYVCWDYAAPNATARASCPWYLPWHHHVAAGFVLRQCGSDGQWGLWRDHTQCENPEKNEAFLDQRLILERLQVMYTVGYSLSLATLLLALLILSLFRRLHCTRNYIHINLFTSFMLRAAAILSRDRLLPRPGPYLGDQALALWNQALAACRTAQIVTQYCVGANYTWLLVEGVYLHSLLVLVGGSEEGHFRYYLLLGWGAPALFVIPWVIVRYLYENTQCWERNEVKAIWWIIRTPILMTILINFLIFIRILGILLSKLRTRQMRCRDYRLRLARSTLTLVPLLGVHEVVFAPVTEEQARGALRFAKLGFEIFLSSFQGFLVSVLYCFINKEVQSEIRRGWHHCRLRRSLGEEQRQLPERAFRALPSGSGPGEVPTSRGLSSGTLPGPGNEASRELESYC
Nature of the assay: cell-based or functional assay.

The target in assay [4] is T3, human GLP-1 receptor (human, UniProt P43220 24-463). Nature of the assay: cell-based or functional assay.
The target in assay [5] is T1, human glucagon receptor. Nature of the assay: cell-based or functional assay. This is another data set of the same source.
In the next assay the target is rat glucagon receptor (rat, UniProt P30082 27-485). Nature of the assay: cell-based or functional assay.
Chain of rat glucagon receptor (P30082 27-485): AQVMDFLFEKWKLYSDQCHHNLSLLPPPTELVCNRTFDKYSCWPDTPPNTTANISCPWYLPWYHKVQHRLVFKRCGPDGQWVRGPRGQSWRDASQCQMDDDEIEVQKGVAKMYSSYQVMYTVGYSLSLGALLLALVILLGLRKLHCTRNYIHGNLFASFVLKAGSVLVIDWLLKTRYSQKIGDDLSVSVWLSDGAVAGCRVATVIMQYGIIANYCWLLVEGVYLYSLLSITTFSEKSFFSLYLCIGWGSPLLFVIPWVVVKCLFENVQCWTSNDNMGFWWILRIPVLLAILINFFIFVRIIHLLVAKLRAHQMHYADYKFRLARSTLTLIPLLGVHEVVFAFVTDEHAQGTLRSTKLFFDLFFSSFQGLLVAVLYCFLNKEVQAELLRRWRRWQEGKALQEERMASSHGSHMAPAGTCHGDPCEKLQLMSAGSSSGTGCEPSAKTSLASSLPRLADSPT
For another assay, the target named is T4, mouse GLP-1 receptor (mouse, UniProt O35659 22-463).
T4 sequence (looked up): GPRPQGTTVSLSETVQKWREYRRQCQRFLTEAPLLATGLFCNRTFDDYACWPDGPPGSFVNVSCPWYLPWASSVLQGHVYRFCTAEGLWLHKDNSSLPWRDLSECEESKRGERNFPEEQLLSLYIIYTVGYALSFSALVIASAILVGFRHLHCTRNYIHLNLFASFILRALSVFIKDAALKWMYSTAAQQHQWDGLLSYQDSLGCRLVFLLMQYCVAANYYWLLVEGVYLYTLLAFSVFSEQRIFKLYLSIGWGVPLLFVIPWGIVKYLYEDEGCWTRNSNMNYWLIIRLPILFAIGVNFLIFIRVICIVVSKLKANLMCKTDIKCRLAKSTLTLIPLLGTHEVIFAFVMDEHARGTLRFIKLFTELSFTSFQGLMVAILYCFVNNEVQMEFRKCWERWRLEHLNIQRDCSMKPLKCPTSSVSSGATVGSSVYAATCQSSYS
Nature of the assay: cell-based or functional assay.

Assay [6] has as its target T3, human GLP-1 receptor. Nature of the assay: cell-based or functional assay. This is another data set of the same source.
The target of a further assay is T5, rat GLP-1 receptor (rat, UniProt P32301 22-463).
T5 sequence (looked up): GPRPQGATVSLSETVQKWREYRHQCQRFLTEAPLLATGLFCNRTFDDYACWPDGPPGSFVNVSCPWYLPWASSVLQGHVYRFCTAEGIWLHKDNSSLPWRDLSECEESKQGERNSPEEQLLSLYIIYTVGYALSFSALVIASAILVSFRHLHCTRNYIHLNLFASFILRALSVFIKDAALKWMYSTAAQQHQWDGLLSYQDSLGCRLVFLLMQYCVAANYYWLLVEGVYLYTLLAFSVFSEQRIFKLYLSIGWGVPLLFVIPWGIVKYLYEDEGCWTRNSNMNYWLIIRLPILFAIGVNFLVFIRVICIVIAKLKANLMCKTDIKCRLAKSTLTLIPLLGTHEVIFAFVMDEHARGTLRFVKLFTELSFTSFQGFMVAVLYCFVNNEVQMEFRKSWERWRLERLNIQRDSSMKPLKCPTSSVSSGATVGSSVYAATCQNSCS
Nature of the assay: cell-based or functional assay.

The next assay addresses mouse glucagon receptor (mouse, UniProt Q61606 27-485). Nature of the assay: cell-based or functional assay.
The target in assay [7] is T1, human glucagon receptor. Nature of the assay: cell-based or functional assay. The source holds these as a separate data set.
Assay [8] has as its target T2, human glucose-dependent insulinotropic …. Nature of the assay: cell-based or functional assay. This is another data set of the same source.
For assay [9], the target named is T3, human GLP-1 receptor. Nature of the assay: cell-based or functional assay. This is another data set of the same source.
Assay [10] concerns the target T3, human GLP-1 receptor. Nature of the assay: cell-based or functional assay. The source holds these as a separate data set.
The target of assay [11] is T1, human glucagon receptor. Nature of the assay: cell-based or functional assay. The source holds these as a separate data set.
For assay [12], the target named is T2, human glucose-dependent insulinotropic …. Nature of the assay: cell-based or functional assay. The source holds these as a separate data set.
Assay [13] concerns the target T3, human GLP-1 receptor. Nature of the assay: cell-based or functional assay. The source holds these as a separate data set.

Chain of mouse glucagon receptor (Q61606 27-485): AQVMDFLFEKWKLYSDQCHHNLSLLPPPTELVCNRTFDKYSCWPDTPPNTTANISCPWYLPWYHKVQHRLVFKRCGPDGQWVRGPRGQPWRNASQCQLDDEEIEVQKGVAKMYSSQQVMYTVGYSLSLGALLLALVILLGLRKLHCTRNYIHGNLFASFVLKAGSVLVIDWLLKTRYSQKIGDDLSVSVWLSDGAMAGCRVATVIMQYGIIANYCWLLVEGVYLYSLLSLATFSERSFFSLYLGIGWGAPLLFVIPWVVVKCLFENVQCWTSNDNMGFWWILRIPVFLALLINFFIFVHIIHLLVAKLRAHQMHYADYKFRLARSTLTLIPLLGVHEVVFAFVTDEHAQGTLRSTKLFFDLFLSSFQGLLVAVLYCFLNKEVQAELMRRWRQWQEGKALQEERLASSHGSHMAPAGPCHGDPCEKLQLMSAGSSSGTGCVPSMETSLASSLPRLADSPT

B1: G730 (peptide)
peptide: HSQGTFTSDYSKK([γGlu-Palmitoyl])LDSERARDFVAWLVAGG-NH2
modifications: N-terminus assumed
SMILES: CCCCCCCCCCCCCCCC(=O)N[C@@H](CCC(=O)NCCCC[C@H](NC(=O)[C@H](CCCCN)NC(=O)[C@H](CO)NC(=O)[C@H](Cc1ccc(O)cc1)NC(=O)[C@H](CC(=O)O)NC(=O)[C@H](CO)NC(=O)[C@@H](NC(=O)[C@H](Cc1ccccc1)NC(=O)[C@@H](NC(=O)CNC(=O)[C@H](CCC(N)=O)NC(=O)[C@H](CO)NC(=O)[C@@H](N)Cc1c[nH]cn1)[C@@H](C)O)[C@@H](C)O)C(=O)N[C@@H](CC(C)C)C(=O)N[C@@H](CC(=O)O)C(=O)N[C@@H](CO)C(=O)N[C@@H](CCC(=O)O)C(=O)N[C@@H](CCCNC(=N)N)C(=O)N[C@@H](C)C(=O)N[C@@H](CCCNC(=N)N)C(=O)N[C@@H](CC(=O)O)C(=O)N[C@@H](Cc1ccccc1)C(=O)N[C@H](C(=O)N[C@@H](C)C(=O)N[C@@H](Cc1c[nH]c2ccccc12)C(=O)N[C@@H](CC(C)C)C(=O)N[C@H](C(=O)N[C@@H](C)C(=O)NCC(=O)NCC(N)=O)C(C)C)C(C)C)C(=O)O
One may read the EC50 as the concentration that produces a half-maximal response. B1: in [1], the free peptide at 4.4% HSA is 0.85%. Besides, the “cAMP EC50 (assay 1)” value in the assay with human glucagon receptor [2] came to 0.015 nM; in assay [3] it was 56.6 nM; with human GLP-1 receptor [4] it was 0.0395 nM; with human glucagon receptor [7] it was 0.00623 nM; in [8], 45 nM; with human GLP-1 receptor [9], 0.018 nM. Also, the figures for the “cAMP EC50 (assay 2, 4.4% human serum albumin)” value with human glucagon receptor [5] and in the assay with human GLP-1 receptor [6] were 0.402 nM and 0.455 nM, respectively. The “cAMP EC50 (assay 2, 3.2% rat serum albumin)” value with rat glucagon receptor came to 45.1 nM; with rat GLP-1 receptor, 0.081 nM. The figures for the “cAMP EC50 (assay 2, 3.2% mouse serum albumin)” value with mouse GLP-1 receptor and with mouse glucagon receptor were 1.1 nM and 5.46 nM, respectively. Further, the “EC50 at the GLP1R at 0% HSA (calculated)” value with human GLP-1 receptor [10] was 0.007 nM.

B2: G973 (peptide)
peptide: HSQGTFTSDK([γGlu-Palmitoyl])SSYLDSRSARDFVAWLEAGG-OH
modifications: N-terminus assumed
SMILES: CCCCCCCCCCCCCCCC(=O)N[C@@H](CCC(=O)NCCCC[C@H](NC(=O)[C@H](CC(=O)O)NC(=O)[C@H](CO)NC(=O)[C@@H](NC(=O)[C@H](Cc1ccccc1)NC(=O)[C@@H](NC(=O)CNC(=O)[C@H](CCC(N)=O)NC(=O)[C@H](CO)NC(=O)[C@@H](N)Cc1c[nH]cn1)[C@@H](C)O)[C@@H](C)O)C(=O)N[C@@H](CO)C(=O)N[C@@H](CO)C(=O)N[C@@H](Cc1ccc(O)cc1)C(=O)N[C@@H](CC(C)C)C(=O)N[C@@H](CC(=O)O)C(=O)N[C@@H](CO)C(=O)N[C@@H](CCCNC(=N)N)C(=O)N[C@@H](CO)C(=O)N[C@@H](C)C(=O)N[C@@H](CCCNC(=N)N)C(=O)N[C@@H](CC(=O)O)C(=O)N[C@@H](Cc1ccccc1)C(=O)N[C@H](C(=O)N[C@@H](C)C(=O)N[C@@H](Cc1c[nH]c2ccccc12)C(=O)N[C@@H](CC(C)C)C(=O)N[C@@H](CCC(=O)O)C(=O)N[C@@H](C)C(=O)NCC(=O)NCC(=O)O)C(C)C)C(=O)O
Turning to B2, the “cAMP EC50 (assay 1)” value in the assay with human glucagon receptor [11] was 0.0089 nM; in assay [12], 47 nM; with human GLP-1 receptor [13] it was 0.012 nM.

B3: G934 (peptide)
peptide: HSQGTFTSDK([γGlu-Palmitoyl])SKYLEGQAAKEFIAWLEKGR-OH
modifications: N-terminus assumed
SMILES: CCCCCCCCCCCCCCCC(=O)N[C@@H](CCC(=O)NCCCC[C@H](NC(=O)[C@H](CC(=O)O)NC(=O)[C@H](CO)NC(=O)[C@@H](NC(=O)[C@H](Cc1ccccc1)NC(=O)[C@@H](NC(=O)CNC(=O)[C@H](CCC(N)=O)NC(=O)[C@H](CO)NC(=O)[C@@H](N)Cc1c[nH]cn1)[C@@H](C)O)[C@@H](C)O)C(=O)N[C@@H](CO)C(=O)N[C@@H](CCCCN)C(=O)N[C@@H](Cc1ccc(O)cc1)C(=O)N[C@@H](CC(C)C)C(=O)N[C@@H](CCC(=O)O)C(=O)NCC(=O)N[C@@H](CCC(N)=O)C(=O)N[C@@H](C)C(=O)N[C@@H](C)C(=O)N[C@@H](CCCCN)C(=O)N[C@@H](CCC(=O)O)C(=O)N[C@@H](Cc1ccccc1)C(=O)N[C@H](C(=O)N[C@@H](C)C(=O)N[C@@H](Cc1c[nH]c2ccccc12)C(=O)N[C@@H](CC(C)C)C(=O)N[C@@H](CCC(=O)O)C(=O)N[C@@H](CCCCN)C(=O)NCC(=O)N[C@@H](CCCNC(=N)N)C(=O)O)[C@@H](C)CC)C(=O)O
On to B3, for which the “cAMP EC50 (assay 1)” value with human glucagon receptor [11] is 0.0063 nM; in assay [12], 3.6 nM; with human GLP-1 receptor [13], 0.018 nM.
